Measurements reported in patent US11193150B2, “Nepetalactol oxidoreductases, nepetalactol synthases, and microbes capable of producing nepetalactone” (Zymergen Inc., priority 2017, dated 2021).

B1: NcatNOR34: candidate nepetalactol oxidoreductase (NOR) from Nepeta cataria, protein SEQ ID NO: 578 (protein, listed as Nepeta cataria)
chain: MAFCRSSLLLRKALGGSRRAAAAATCSSAYACGWQSERGRWYSGGEGTTISAPGYHVNTAPSHMTGAVFWDKDKPITYEEFEMPRPKANEVLIKTKACGACHSDLHVIKGDLKFPCPCILGHEITGEVVEHGPLTETKYIERYPVGSKVIGAFIMPCGSCFYCSRGEDDLCEPYFAYNRAKGTLYDGQTRLFLRGSGKPVHMWSMSGLAEYCVTPVNGLGALPDTLPYAESSVLGCAVFTAYGAIAHAAEVKPGNSVAVIGIGGVGSSCLQIAKAFGASEIIAVDVEDGKLETAKTFGATHIINSRKEDAIAKIKELTDGRGVDIAVEAIGGPKTFAQCVGSVRAGGKAVMIGLSPTGGKGEVEITQLVRRKVKVIGSYGGRAMTDLPKLVELAEQGTFNLEAAVTRRYKFEEVAQAYQDLQNKTIVGRGVIEIM
B2: GAR_NOR15: NOR candidate codon-optimized for S. cerevisiae (SEQ ID NO: 1393), expressed from pESC-URA (protein, listed as Nepeta cataria)
chain: MADKEGEVVCVTGGSGFIGSWLVSLLLRRGYSVRATVKNLGDERETKHLEAIEGADSRLSLFQIDLLDYDSVATAVGDAAGVFHLASPCTIDQVNDPQRELLDPAIKGTLNVLKAAKNLGVRRVVVTSSISAMIASSNSLAETGEDCWIDEDYCRQNGLWYPVSKALAEKAAWKLAEENGLDIVVVNPGMVVGPILPPALNSSMQLMLHVLQGKDFFEGFFMGLVHVKDVALAQILLYENTSASGRHLCVESLSRYDDFAKQMEKLYPEYKLPRFSNNAQHGSLKSDAALKKLRDLGIEFAPLEQIVKDSIESLRSKGYIS
B3: NcatNOR15: candidate nepetalactol oxidoreductase (NOR) from Nepeta cataria, protein SEQ ID NO: 561 (protein, listed as Nepeta cataria)
chain: MAKTPETEHPVKAFGYAATDNSGTFSPFKFSRRATGERDVQFKVLYCGVCHSDLHMVKNEWGVTHYPIVPGHEIVGVATEVGSKVEKVKVGDKVGVGVIVGSCRQCDQCSNDLENYCSKQILTYGAPYLDGTITRGGYSDIMVADEHFIIRWPENFPLDAGAPLLCAGITTYSPLRYFGLDKPGLRVGVNGLGGLGHVAVKFAKAFGTKVTVISSSLRKKKEAVEKLGVDEFLVSTDPEQMQAAIGTLDGIIDTVSAEHSVVSLLSLLKPHGRLIVVGAPEKPHQLPAFPLITGRKSISGSAIGGMKETQEMIDFAAKHNILPDVEVIPIDYINTAMERLLKSDVKYRFVIDVEKSLKA
B4: NcatNOR21: candidate nepetalactol oxidoreductase (NOR) from Nepeta cataria, protein SEQ ID NO: 566 (protein, listed as Nepeta cataria)
chain: MAKSVNAVGWAARDTSGLLSPLKFARPAAGDRDVQFKVLYCGICHSDLHSIKNEWGNTQYPIVPGHEIVGVVTAVGPKATKFKAGDKVGVGCLVNSCRHCDQCAADLENYCPQLVQTYNSVLADGSVTYGGYSDVMTADEDFVIRWPENFPMDKGAPLLCAGVTTYSPLRYYGLDKPGLHIGVVGLGGLGHVAVKFAKAFGMKVTVISTSAGKKKEAIETLGADAFLISRDASEMQAAAGTLDGMIDTVSAQHPLPPLLSLLKPHGKLILVGAPEKPFELPAFPLLMGRKTVAGSVIGGLKETQEMIDFAAKHNLLPEVEMIPMDYVNTAMERLAKADVKYRFVIDVGNTLTKAD

Columns and labels:
nepetalactol [1] = experiment: In vitro conversion of nepetalactol to nepetalactone by candidate NORs in clarified cell lysate with NAD+ or NADP+ (GC-MS); type: biochemical; settings: clarified lysate of E. coli BL21 (DE3) expressing the candidate, 30° C., 2 hours
Experimental: BL21 (DE3) strains were streaked out on LB plates containing kanamycin from glycerol stock and grown overnight at 37° C. A single colony was inoculated into 4 mL of LB medium containing kanamycin in 15 mL disposable culture tubes and incubated overnight at 30° C. with shaking at 250 rpm. 500 μL of the overnight culture was subcultured into 50 mL of LB medium containing kanamycin in a 250 mL baffled flask. The culture was grown at 37° C. and the optical density at 600 nm (OD600) was monitored. When OD600 reached between 0.6-1, the cultures were cooled on ice for 15 minutes. The cultures were then induced with 100 μM of isopropyl β-D-1-thiogalactopyranoside and incubated at 15° C. with shaking at 250 rpm for roughly 20 hours. Cultures were pelleted by centrifugation in 50 mL centrifuge tubes. The supernatant was decanted and the pellets were frozen at −20° C. for later processing.
Pellets were thawed on ice and resuspended with 3 mL of cold lysis buffer: 50 mM sodium phosphate, pH=7.4, 100 mM sodium chloride. All remaining steps were performed either on ice or at 4° C. The cell mixture was transferred to a 15 mL centrifuge tube and disrupted with three rounds of sonication using the Branson Sonifier 450 with a double-level microtip at 70% amplitude. A single round of sonication consisted of 6 cycles of 10 seconds with the sonicator on, and 10 seconds off. Between each round, the cell mixture was allowed to sit on ice for a minute to cool. The lysed cell mixture was transferred to 1.7 mL centrifuge tubes and centrifuged at maximum speed in a microcentrifuge for 20 minutes. The supernatant (clarified cell lysate) was collected in a separate tube and used for in vitro characterization.
The in vitro reactions were setup as follows: 2 μL of 100 mM NAD+ or NADP+ and 10 μL of 100 uM nepetalactol was added to 188 μL of the clarified cell lysate. The reactions were incubated at 30° C. shaking at 200 rpm for 2 hours. […] The organic layer was withdrawn and analyzed with gas chromatography coupled to mass spectrometry (GC-MS). […]

nepetalactol [2] = experiment: Production of nepetalactone from nepetalactol in Saccharomyces cerevisiae strains expressing NOR candidates from 2μ plasmid pESC-URA; type: cell-based; settings: 2% galactose, 100 mg/L of nepetalactol fed, 30° C., 24 hours
Experimental: 300 μL of ethyl acetate was added to the cultures. The plates were sealed with a PlateLoc Thermal Microplate Sealer and the plates were shaken for one min at 750 rpm. The plates were centrifuged and the ethyl acetate layer was collected and analyzed by liquid chromatography coupled to mass spectrometry (LC-MS). Target analytes were quantified against authentic standards.
The plasmids were individually transformed into chemically competent Saccharomyces cerevisiae cells as described in EXAMPLE 2. Transformants were selected on SD-URA agar plates. Three to four replicates were picked into SD-URA liquid medium and cultured at 30° C. for one to two days with shaking at 1000 rpm. Cultures were glycerol stocked at a final concentration of 16.6% glycerol and stored at −80° C. until later use.
10 μL of the glycerol stocked strains was inoculated into 300 μL of minimal media lacking uracil, and containing 4% glucose in 96-well plates to produce seed cultures. The plates were incubated at 30° C. at 1000 rpm for 1-2 days. 10 μL of the seed cultures was then inoculated into 300 μL of minimal media lacking uracil, and containing 2% galactose and 100 mg/L of nepetalactol. 30 μL of methyl oleate was next added to the wells. The main culture plates were further incubated at 30° C., 1000 rpm for 24 hours before assays were performed to assess cell growth and titer. […]

| Molecule | oxidation of nepetalactol to nepetalactone (nepetalactol [1]) | nepetalactone produced (titer) (nepetalactol [2]) |
| --- | --- | --- |
| B1 | can oxidize nepetalactol to nepetalactone | – |
| B2 | – | 93 mg/L |
| B3 | can oxidize nepetalactol to nepetalactone | – |
| B4 | can oxidize nepetalactol to nepetalactone | – |
